Assay results reported in paper doi:10.1101/2024.02.22.581535.

Target: Bio-His-FIKK13 (P. falciparum)
Test: SPR

Kd: 17 nM
Binder: YPLRFLSKYHCG [FIKK13_4]
